Consider 4 molecules from patent US20190352420A1 (Boehringer Ingelheim, published 2019).

Where two headings read alike, the source gives them in different places.

In one assay the target is T1, non-cell-bound CD73 (human, UniProt P21589 27-549, limits assumed).
T1 sequence (looked up): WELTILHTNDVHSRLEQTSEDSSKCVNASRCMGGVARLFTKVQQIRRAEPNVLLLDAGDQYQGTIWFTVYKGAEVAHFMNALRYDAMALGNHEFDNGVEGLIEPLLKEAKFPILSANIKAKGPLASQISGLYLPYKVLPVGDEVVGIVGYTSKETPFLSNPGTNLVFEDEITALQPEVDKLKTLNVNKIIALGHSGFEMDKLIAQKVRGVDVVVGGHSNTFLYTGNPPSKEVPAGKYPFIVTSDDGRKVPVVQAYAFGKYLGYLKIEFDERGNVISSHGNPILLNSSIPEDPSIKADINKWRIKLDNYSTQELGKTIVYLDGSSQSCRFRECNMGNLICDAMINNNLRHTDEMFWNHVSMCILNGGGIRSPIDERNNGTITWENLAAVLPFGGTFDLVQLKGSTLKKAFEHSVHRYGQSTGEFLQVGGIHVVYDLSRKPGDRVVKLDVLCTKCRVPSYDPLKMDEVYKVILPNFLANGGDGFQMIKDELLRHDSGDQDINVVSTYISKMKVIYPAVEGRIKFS
As to the kind of experiment: cell-based or functional assay.

Assay [1] concerns the target T2, cell-bound CD73 (human, UniProt P21589 27-549).
T2 sequence (looked up): T1 sequence (looked up)
As to the kind of experiment: cell-based or functional assay.

The target in assay [2] is T2, cell-bound CD73. As to the kind of experiment: cell-based or functional assay. This is another data set of the same source.
Assay [3] addresses T2, cell-bound CD73. As to the kind of experiment: cell-based or functional assay. The source holds these as a separate data set.
Assay [4] concerns the target T2, cell-bound CD73. As to the kind of experiment: cell-based or functional assay. The source holds these as a separate data set.
Assay [5] concerns the target T2, cell-bound CD73. As to the kind of experiment: cell-based or functional assay. This is another data set of the same source.
In the next assay the target is T3, human CD73-His (human, UniProt P21589 27-549).
T3 construct: extracellular domain; The SPR analyte is only called 'human CD73-His' (non-covalent dimeric antigen); also called HuCD73 His tagged; HuCD73his20170303
T3 sequence: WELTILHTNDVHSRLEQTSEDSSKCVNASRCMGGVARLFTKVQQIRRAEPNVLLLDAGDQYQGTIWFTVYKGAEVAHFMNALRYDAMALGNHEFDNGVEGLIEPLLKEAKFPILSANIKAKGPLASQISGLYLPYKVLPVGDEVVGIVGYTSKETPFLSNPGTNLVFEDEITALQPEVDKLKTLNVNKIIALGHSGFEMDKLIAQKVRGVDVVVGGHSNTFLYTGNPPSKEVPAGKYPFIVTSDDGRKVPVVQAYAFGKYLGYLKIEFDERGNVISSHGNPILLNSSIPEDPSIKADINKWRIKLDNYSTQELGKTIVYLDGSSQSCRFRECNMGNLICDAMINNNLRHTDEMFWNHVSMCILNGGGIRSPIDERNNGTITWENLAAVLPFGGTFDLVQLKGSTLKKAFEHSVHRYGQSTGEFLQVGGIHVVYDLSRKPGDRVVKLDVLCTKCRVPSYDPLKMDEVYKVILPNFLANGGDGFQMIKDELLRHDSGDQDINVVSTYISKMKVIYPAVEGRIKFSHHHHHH
As to the kind of experiment: SPR (ProteOn XPR36), antibody captured on Protein A/G, dimeric human CD73-His as analyte, avidity format, 1:1 Langmuir fit. The procedure:
For the avidity format, the experiment was performed on a Bio-Rad ProteOn XPR36 instrument. Antibodies were captured via Protein A/G and the non-covalent dimeric antigens were flowed over the captured surface. The running buffer for this experiment and all dilutions were prepared in PBS-T-EDTA. The GLM sensor chip was normalized and pre-conditioned as per the manufacturer's recommendations. The sensor chip was activated with an equal mixture of EDC/s-NHS in the horizontal direction for 300 s at a flow rate of 30 μL/min and immobilized with recombinant Protein A/G (50 μg/ml in 10 mM acetate pH 4.5) in the horizontal direction for 300 s at a flow rate of 30 μL/min resulting in about 5000 RU of Protein A/G on the surface. The sensor chip was deactivated with 1M ethanolamine-HCl in the horizontal direction for 300 s at a flow rate of 30 μL/min. The sensor chip was regenerated with 18 s of 0.85% phosphoric acid at a flow rate of 100 μL/min 2 times horizontally and 2 times vertically.
About 300 RU of antibody was captured on the Protein A/G surface vertically for 60 s at a flow rate of 30 μL/min. The capture surface was stabilized by injecting PBS-T-EDTA for 60 s at a flowrate of 100 μL/min horizontally. The analyte (human CD73-His) was injected horizontally over the captured antibody for 600 s at a flow rate of 30 μL/min with a dissociation of 1200 s. The concentrations of human CD73-His were 0 nM, 3.125 nM, 6.25 nM, 12.5 nM, 25 nM and 50 nM. The surface was regenerated by injecting 0.85% phosphoric acid for 18 s at a flow rate of 100 μL/min one time horizontally and one time vertically.
The interspot (interactions with sensor surface) and blank (PBS-T-EDTA or 0 nM analyte) were subtracted from the raw data.

The target in assay [6] is T2, cell-bound CD73. As to the kind of experiment: cell-based or functional assay. This is another data set of the same source.
The target of assay [7] is T4, recombinant human CD73 protein (human, UniProt P21589 27-549, limits assumed).
T4 sequence (looked up): T1 sequence (looked up)
As to the kind of experiment: cell-based or functional assay.

The target of a further assay is T5, mouse CD73 (mouse, UniProt Q61503 29-551, limits assumed).
T5 construct: also called murine CD73
T5 sequence (looked up): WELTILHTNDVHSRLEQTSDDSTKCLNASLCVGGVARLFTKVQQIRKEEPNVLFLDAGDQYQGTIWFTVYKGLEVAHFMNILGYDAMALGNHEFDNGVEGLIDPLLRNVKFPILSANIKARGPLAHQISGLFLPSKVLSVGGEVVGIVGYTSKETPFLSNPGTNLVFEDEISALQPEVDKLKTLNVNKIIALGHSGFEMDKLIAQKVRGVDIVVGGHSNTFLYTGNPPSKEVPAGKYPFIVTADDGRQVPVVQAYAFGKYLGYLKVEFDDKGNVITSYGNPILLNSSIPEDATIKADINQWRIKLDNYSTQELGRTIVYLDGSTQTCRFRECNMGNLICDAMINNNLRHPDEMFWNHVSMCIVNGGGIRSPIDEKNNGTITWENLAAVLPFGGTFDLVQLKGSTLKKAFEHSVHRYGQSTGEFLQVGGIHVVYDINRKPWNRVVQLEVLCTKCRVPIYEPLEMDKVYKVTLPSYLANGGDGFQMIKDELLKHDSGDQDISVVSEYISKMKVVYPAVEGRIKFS
As to the kind of experiment: SPR, mouse CD73 compared with human CD73 (reference).

On to "MEDI9447" (antibody), for which the % of max. adenosine inhibition, Colo-201 culture supernatant in the assay with non-cell-bound CD73 turned out to be 56%. In the assay with cell-bound CD73 [1], this molecule yielded a % of max. adenosine inhibition, washed Colo-201 cells of 62%; a CD8 T cell proliferation [% of control], Donor A, 1 nM antibody of 43.9%; a CD8 T cell proliferation [% of control], Donor B, 1 nM antibody of 46.7%; a CD8 T cell proliferation [% of control], Donor C, 1 nM antibody of 115%. Also, in the assay with cell-bound CD73 [1], the CD8 T cell proliferation [% of control], Donor D, 1 nM antibody amounted to 98%; the CD8 T cell proliferation [% of control], Donor E, 1 nM antibody was determined as 85.5%; the CD8 T cell proliferation [% of control], Donor F, 1 nM antibody is -34.1%; the CD73 surface reduction [%] on Colo201 cells, 24 h, flow cytometry turned out to be 17%. In addition, in the assay with cell-bound CD73 [1], the IFNγ release [fold change over control], Donor A, 1 nM antibody stood at 7.7 fold; the IFNγ release [fold change over control], Donor B, 1 nM antibody came out at 5.3 fold; the IFNγ release [fold change over control], Donor C, 1 nM antibody amounted to 16.2 fold; the IFNγ release [fold change over control], Donor D, 1 nM antibody is 20.7 fold. In the assay with cell-bound CD73 [1], this molecule displayed an IFNγ release [fold change over control], Donor E, 1 nM antibody of 5 fold; an IFNγ release [fold change over control], Donor F, 1 nM antibody of 1.1 fold; a Max. adenosine inhibition [%] in Colo201 cells of 63%.
With "BMS986179" (antibody), in the assay with non-cell-bound CD73, the % of max. adenosine inhibition, Colo-201 culture supernatant was found to be 63%. In addition, in the assay with cell-bound CD73 [1], the % of max. adenosine inhibition, washed Colo-201 cells worked out at 84%; the CD8 T cell proliferation [% of control], Donor A, 1 nM antibody worked out at 40.7%; the CD8 T cell proliferation [% of control], Donor B, 1 nM antibody is 61.7%; the CD8 T cell proliferation [% of control], Donor C, 1 nM antibody is 99.6%. Further, in the assay with cell-bound CD73 [1], the CD8 T cell proliferation [% of control], Donor D, 1 nM antibody is 98.7%; the CD8 T cell proliferation [% of control], Donor E, 1 nM antibody came to 95.4%; the CD8 T cell proliferation [% of control], Donor F, 1 nM antibody was found to be 22.5%; the CD73 surface reduction [%] on Colo201 cells, 24 h, flow cytometry is 58%. Further, in the assay with cell-bound CD73 [1], the IFNγ release [fold change over control], Donor A, 1 nM antibody is 10.9 fold; the IFNγ release [fold change over control], Donor B, 1 nM antibody is 5.2 fold; the IFNγ release [fold change over control], Donor C, 1 nM antibody was 36.4 fold; the IFNγ release [fold change over control], Donor D, 1 nM antibody is 13.3 fold. In the assay with cell-bound CD73 [1], this molecule showed an IFNγ release [fold change over control], Donor E, 1 nM antibody of 7.2 fold; an IFNγ release [fold change over control], Donor F, 1 nM antibody of 2.9 fold; a Max. adenosine inhibition [%] in Colo201 cells of 68%.

B1: C2 (antibody, human IgG1, kappa, L234A L235A, V domains shown)
VH: QVQLVQSGAEVKKPGDSVKVSCKASGYTFTTYWMHWVRQAPGQGLEWMGAIYPGLSDTTYSQKFKGKVTMTRDTSTSTVYMKLSSLRSEDTAVYYCARLLDYAMDYWGQGTLVTVSS
VL: DIQMTQSPSSLSASVGDRVTITCRASQDIRSYLNWHQQKPGKAPKLLIWYTSRLHSGVPSRFSGSGSGTDYTLTISSLEPEDFATYFCQQGETLPWTFGQGTKLEIKR
notes: Humanized monoclonal antibody; also called anti-CD73 antibody C2
As for B1, the “% of max. adenosine inhibition, Colo-201 culture supernatant” value in the assay with non-cell-bound CD73 came out at 77%. Also, the “CD73 surface reduction [%] on Colo201 cells, 24 h, flow cytometry” value with cell-bound CD73 [2] amounted to 15%. In addition, in the assay with cell-bound CD73 [3], the “IFNγ release [fold change over control], Donor A, 1 nM antibody” value came out at 20.3 fold and the “IFNγ release [fold change over control], Donor B, 1 nM antibody” value came out at 7.8 fold. Also, in the assay with cell-bound CD73 [4], the “CD8 T cell proliferation [% of control], Donor A, 1 nM antibody” value stood at 103% and the “CD8 T cell proliferation [% of control], Donor B, 1 nM antibody” value turned out to be 68.5%. The “Max. adenosine inhibition [%] in Colo201 cells” value with cell-bound CD73 [5] was determined as 88%. In addition, the Kd with human CD73-His is 0.063 nM. In addition, the “% of max. adenosine inhibition, washed Colo-201 cells” value in the assay with cell-bound CD73 [6] stood at 78%. Moreover, the “IC90 of inhibition of CD73 enzymatic function (luciferase-based assay)” value in [7] stood at 0.49 nM. For the same molecule, in the assay with mouse CD73, the “fold higher binding to human CD73 than to mouse CD73” value was found to be 138 fold.

B2: B2 (antibody, human IgG1, kappa, L234A L235A, V domains shown)
VH: EVQLVESGGGLVQPGGSLRLSCAASGLTFSSYVMSWVRQAPGKGLEWVSTISSGGVSTYYPDTVKGRFTISRDNSKNTLYLQMNSLRAEDTAVYYCAKRETARATGFAYWGQGTLVTVSA
VL: DIQMTQSPSSLSASVGDRVTITCKASQSVSDDVTWYQQKPGKAPKLLIYYASNRYTGVPSRFSGSGSGTDFTFTISSVQPEDIATYYCQQDYSSPWTFGGGTKLEIKR
notes: Humanized monoclonal antibody; also called anti-CD73 antibody B2
For B2, the “% of max. adenosine inhibition, Colo-201 culture supernatant” value with non-cell-bound CD73 stood at 62%. The “CD73 surface reduction [%] on Colo201 cells, 24 h, flow cytometry” value with cell-bound CD73 [2] came out at 31%. In the assay with cell-bound CD73 [3], the “IFNγ release [fold change over control], Donor A, 1 nM antibody” value was found to be 12.6 fold; the “IFNγ release [fold change over control], Donor B, 1 nM antibody” value amounted to 8.1 fold; the “IFNγ release [fold change over control], Donor C, 1 nM antibody” value is 34.1 fold; the “IFNγ release [fold change over control], Donor D, 1 nM antibody” value turned out to be 17.7 fold. In the assay with cell-bound CD73 [3], the “IFNγ release [fold change over control], Donor E, 1 nM antibody” value turned out to be 11.1 fold and the “IFNγ release [fold change over control], Donor F, 1 nM antibody” value stood at 3.1 fold. Also, in the assay with cell-bound CD73 [4], the “CD8 T cell proliferation [% of control], Donor A, 1 nM antibody” value amounted to 55.6%; the “CD8 T cell proliferation [% of control], Donor B, 1 nM antibody” value came to 62.2%; the “CD8 T cell proliferation [% of control], Donor C, 1 nM antibody” value is 95.8%; the “CD8 T cell proliferation [% of control], Donor D, 1 nM antibody” value is 98.5%. Further, in the assay with cell-bound CD73 [4], the “CD8 T cell proliferation [% of control], Donor E, 1 nM antibody” value came out at 99.1% and the “CD8 T cell proliferation [% of control], Donor F, 1 nM antibody” value was -8.9%. Further, the “Max. adenosine inhibition [%] in Colo201 cells” value with cell-bound CD73 [5] was 77%. This molecule showed a Kd with human CD73-His of 0.42 nM. For the same molecule, the “% of max. adenosine inhibition, washed Colo-201 cells” value with cell-bound CD73 [6] was determined as 70%. Moreover, in [7], the “IC90 of inhibition of CD73 enzymatic function (luciferase-based assay)” value worked out at 1.04 nM.
